# From patent US20250043022A1 (JIANGSU HENGRUI PHARMACEUTICALS, published 2025)
# Molecular target: T1, human PSMA on cells (Cho-hPSMA, CHO-K1 cells overexpressing full-length human PSMA) (human, UniProt Q04609 1-750)
# T1 construct: whole, on cells; also called cell surface PSMA; PSMA-expressing Lncap cells
# Experiment: cell ELISA (OD450), Cho-hPSMA cells
# Experimental: Experiment 2: Cells were cultured and inoculated onto a cell plate using the same method as in Experiment 1. The antibodies were serially diluted, and the antibody solutions were added to the cell plate at 100 μL/well. The plate was incubated at 4° C. for 1 h and then washed. An HRP-Goat Anti-human IgG (H+L) secondary antibody dilution (1:8000) was added to the cell plate at 100 μL/well, and the plate was incubated at 4° C. for 1 h and then washed by centrifugation. After color development with TMB, the reaction was stopped with 0.1 M sulfuric acid, and OD450 values were measured.
# T1 sequence (Q04609 whole entry): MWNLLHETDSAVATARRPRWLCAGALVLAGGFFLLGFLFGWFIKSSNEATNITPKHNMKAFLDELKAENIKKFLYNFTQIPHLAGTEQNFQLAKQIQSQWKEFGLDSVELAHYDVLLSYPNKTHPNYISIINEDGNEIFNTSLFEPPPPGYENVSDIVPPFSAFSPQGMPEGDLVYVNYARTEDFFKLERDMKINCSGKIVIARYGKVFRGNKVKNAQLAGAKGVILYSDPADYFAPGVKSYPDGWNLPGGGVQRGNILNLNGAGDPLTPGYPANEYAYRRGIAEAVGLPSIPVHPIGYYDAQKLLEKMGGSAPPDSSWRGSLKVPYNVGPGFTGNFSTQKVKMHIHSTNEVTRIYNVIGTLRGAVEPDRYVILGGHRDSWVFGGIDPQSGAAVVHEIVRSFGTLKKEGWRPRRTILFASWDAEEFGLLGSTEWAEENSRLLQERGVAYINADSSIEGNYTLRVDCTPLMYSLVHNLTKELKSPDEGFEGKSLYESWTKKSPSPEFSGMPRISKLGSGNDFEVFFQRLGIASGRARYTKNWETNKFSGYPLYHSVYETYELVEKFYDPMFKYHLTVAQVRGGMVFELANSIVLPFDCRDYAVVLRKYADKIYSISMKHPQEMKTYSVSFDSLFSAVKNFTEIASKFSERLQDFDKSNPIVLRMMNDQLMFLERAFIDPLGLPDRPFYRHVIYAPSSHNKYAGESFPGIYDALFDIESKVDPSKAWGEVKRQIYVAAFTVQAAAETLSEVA
row,EC50 [µg/mL],Binder
1,0.104,"hu50H2L3 (antibody, human IgG1, kappa, V domains shown) VH: EVQLVQSGAEVKKPGASVKVSCKASGFTFTNYGISWVRQAPGQGLEWMGEIYPRSGNTYYNTNFKGRVTLTADKSTSTAYMELRSLRSEDTAVYYCARNPFTTVVEGFAFWGQGTLVTVSS VL: DIVMTQSPLSLPVTPGEPASISCRSSQSILHSYGNTYLEWYLQKPGQSPQLLIYRVSNRFSGVPDRFSGSGSGTDFTLKISRVEAEDVGVYYCFQGLHVPPTFGQGTKLEIKR"
2,0.0487,"hu50H2L1 (antibody, human IgG1, kappa) heavy: not shown light: DIVMTQSPLSLPVTPGEPASISCRSSQSILHSNGNTYLEWYLQKPGQSPQLLIYRVSNRFSGVPDRFSGSGSGTDFTLKISRVEAEDVGVYYCFQGLHVPPTFGQGTKLEIKRTVAAPSVFIFPPSDEQLKSGTASVVCLLNNFYPREAKVQWKVDNALQSGNSQESVTEQDSKDSTYSLSSTLTLSKADYEKHKVYACEVTHQGLSSPVTKSFNRGEC"
3,0.0597,"hu46H3L1 (antibody, human IgG1, kappa, V domains shown) VH: EVQLVESGGGLVKPGGSLRLSCAASGFTFSNYGMSWVRQAPGKGIKWVSTIGSGGGYTYYSDSVKGRFTISRDNAKNSLYLQMNSLRAEDTAVYYCVRHPQIGYWGQGTLVTVSS VL: DIQMTQSPSSLSASVGDRVTITCKASQSVGTAVAWYQQKPGKAPKLLIYSASSRYTGVPSRFSGSGSGTDFTLTISSLQPEDFATYYCHQYSSYPLTFGGGTKVEIKR"
4,0.0805,"hu46H2L3 (antibody, human IgG1, kappa, V domains shown) VH: EVQLVESGGGLVKPGGSLRLSCAASGFTFSNYGMSWVRQAPGKGLEWVSTIGSGGGYTYYSDSVKGRFTISRDNAKNSLYLQMNSLRAEDTAVYYCVRHPQIGYWGQGTLVTVSS VL: DIQMTQSPSSLSASVGDRVTITCKASQSVGTAVAWYQQKPGKAPKLLIYSASSRYTGVPDRFSGSGSGTDFTLTISSLQPEDFADYFCHQYSSYPLTFGGGTKVEIKR"
5,0.0617,"hu46H3L2 (antibody, human IgG1, kappa, V domains shown) VH: EVQLVESGGGLVKPGGSLRLSCAASGFTFSNYGMSWVRQAPGKGIKWVSTIGSGGGYTYYSDSVKGRFTISRDNAKNSLYLQMNSLRAEDTAVYYCVRHPQIGYWGQGTLVTVSS VL: DIQMTQSPSSLSASVGDRVTITCKASQSVGTAVAWYQQKPGKAPKLLIYSASSRYTGVPSRFSGSGSGTDFTLTISSLQPEDFADYFCHQYSSYPLTFGGGTKVEIKR"
6,0.0788,"hu46H2L1 (antibody, human IgG1, kappa, V domains shown) VH: EVQLVESGGGLVKPGGSLRLSCAASGFTFSNYGMSWVRQAPGKGLEWVSTIGSGGGYTYYSDSVKGRFTISRDNAKNSLYLQMNSLRAEDTAVYYCVRHPQIGYWGQGTLVTVSS VL: DIQMTQSPSSLSASVGDRVTITCKASQSVGTAVAWYQQKPGKAPKLLIYSASSRYTGVPSRFSGSGSGTDFTLTISSLQPEDFATYYCHQYSSYPLTFGGGTKVEIKR"
7,0.0843,"hu46H4L1 (antibody, human IgG1, kappa, V domains shown) VH: EVQLVESGGGLVKPGGSLRLSCAASGFTFSNYGMSWVRQAPGKGIKWVATIGSGGGYTYYSDSVKGRFTISRDNAKNSLYLQMNSLRAEDTAVYYCVRHPQIGYWGQGTLVTVSS VL: DIQMTQSPSSLSASVGDRVTITCKASQSVGTAVAWYQQKPGKAPKLLIYSASSRYTGVPSRFSGSGSGTDFTLTISSLQPEDFATYYCHQYSSYPLTFGGGTKVEIKR"
8,0.101,"hu71H4L1 (antibody, human IgG1, kappa) heavy: not shown light: DIVMTQTPLSLPVTPGEPASISCRSSQSLVHSYGNTYLHWYLQKPGQSPQLLIYKVSNRFSGVPDRFSGSGSGTDFTLKISRVEAEDVGVYYCSQTTHVPWTFGGGTKVEIKRTVAAPSVFIFPPSDEQLKSGTASVVCLLNNFYPREAKVQWKVDNALQSGNSQESVTEQDSKDSTYSLSSTLTLSKADYEKHKVYACEVTHQGLSSPVTKSFNRGEC"
9,0.12,"hu71H1L1 (antibody, human IgG1, kappa) heavy: not shown light: DIVMTQTPLSLPVTPGEPASISCRSSQSLVHSYGNTYLHWYLQKPGQSPQLLIYKVSNRFSGVPDRFSGSGSGTDFTLKISRVEAEDVGVYYCSQTTHVPWTFGGGTKVEIKRTVAAPSVFIFPPSDEQLKSGTASVVCLLNNFYPREAKVQWKVDNALQSGNSQESVTEQDSKDSTYSLSSTLTLSKADYEKHKVYACEVTHQGLSSPVTKSFNRGEC"
10,0.11,"hu71H1L2 (antibody, human IgG1, kappa) heavy: not shown light: DVVVTQTPLSLPVTPGEPASISCRSSQSLVHSYGNTYLHWYLQKPGQSPQLLIYKVSNRFSGVPDRFSGSGSGTDFTLKISRVEAEDVGVYYCSQTTHVPWTFGGGTKVEIKRTVAAPSVFIFPPSDEQLKSGTASVVCLLNNFYPREAKVQWKVDNALQSGNSQESVTEQDSKDSTYSLSSTLTLSKADYEKHKVYACEVTHQGLSSPVTKSFNRGEC"
11,0.116,"hu71H2L2 (antibody, human IgG1, kappa) heavy: not shown light: DVVVTQTPLSLPVTPGEPASISCRSSQSLVHSYGNTYLHWYLQKPGQSPQLLIYKVSNRFSGVPDRFSGSGSGTDFTLKISRVEAEDVGVYYCSQTTHVPWTFGGGTKVEIKRTVAAPSVFIFPPSDEQLKSGTASVVCLLNNFYPREAKVQWKVDNALQSGNSQESVTEQDSKDSTYSLSSTLTLSKADYEKHKVYACEVTHQGLSSPVTKSFNRGEC"

# Continued, binder first:
row,Binder,EC50 [µg/mL]
1,"hu50H1L1 (antibody, human IgG1, kappa) heavy: not shown light: DIVMTQSPLSLPVTPGEPASISCRSSQSILHSNGNTYLEWYLQKPGQSPQLLIYRVSNRFSGVPDRFSGSGSGTDFTLKISRVEAEDVGVYYCFQGLHVPPTFGQGTKLEIKRTVAAPSVFIFPPSDEQLKSGTASVVCLLNNFYPREAKVQWKVDNALQSGNSQESVTEQDSKDSTYSLSSTLTLSKADYEKHKVYACEVTHQGLSSPVTKSFNRGEC",0.0679
2,"hu50H1L3 (antibody, human IgG1, kappa, V domains shown) VH: EVQLVQSGAEVKKPGASVKVSCKASGFTFTNYGISWVRQAPGQGLEWMGEIYPRSGNTYYNTNFKGRVTMTTDKSTSTAYMELRSLRSEDTAVYYCARNPFTTVVEGFAFWGQGTLVTVSS VL: DIVMTQSPLSLPVTPGEPASISCRSSQSILHSYGNTYLEWYLQKPGQSPQLLIYRVSNRFSGVPDRFSGSGSGTDFTLKISRVEAEDVGVYYCFQGLHVPPTFGQGTKLEIKR",0.108
3,"hu50H2L2 (antibody, human IgG1, kappa) heavy: not shown light: DVFMTQSPLSLPVTPGEPASISCRSSQSILHSNGNTYLEWYLQKPGQSPQLLIYRVSNRFSGVPDRFSGSGSGTDFTLKISRVEAEDVGVYYCFQGLHVPPTFGQGTKLEIKRTVAAPSVFIFPPSDEQLKSGTASVVCLLNNFYPREAKVQWKVDNALQSGNSQESVTEQDSKDSTYSLSSTLTLSKADYEKHKVYACEVTHQGLSSPVTKSFNRGEC",0.0477
4,"hu46H1L3 (antibody, human IgG1, kappa, V domains shown) VH: EVQLVESGGGLVKPGGSLRLSCAASGFTFSNYGMSWVRQAPGKGLEWVSTIGSGGGYTYYSDSVKGRFTISRDNAKNSLYLQMNSLRAEDTAVYYCARHPQIGYWGQGTLVTVSS VL: DIQMTQSPSSLSASVGDRVTITCKASQSVGTAVAWYQQKPGKAPKLLIYSASSRYTGVPDRFSGSGSGTDFTLTISSLQPEDFADYFCHQYSSYPLTFGGGTKVEIKR",0.123
5,"hu46H3L3 (antibody, human IgG1, kappa, V domains shown) VH: EVQLVESGGGLVKPGGSLRLSCAASGFTFSNYGMSWVRQAPGKGIKWVSTIGSGGGYTYYSDSVKGRFTISRDNAKNSLYLQMNSLRAEDTAVYYCVRHPQIGYWGQGTLVTVSS VL: DIQMTQSPSSLSASVGDRVTITCKASQSVGTAVAWYQQKPGKAPKLLIYSASSRYTGVPDRFSGSGSGTDFTLTISSLQPEDFADYFCHQYSSYPLTFGGGTKVEIKR",0.0912
6,"hu46H4L2 (antibody, human IgG1, kappa, V domains shown) VH: EVQLVESGGGLVKPGGSLRLSCAASGFTFSNYGMSWVRQAPGKGIKWVATIGSGGGYTYYSDSVKGRFTISRDNAKNSLYLQMNSLRAEDTAVYYCVRHPQIGYWGQGTLVTVSS VL: DIQMTQSPSSLSASVGDRVTITCKASQSVGTAVAWYQQKPGKAPKLLIYSASSRYTGVPSRFSGSGSGTDFTLTISSLQPEDFADYFCHQYSSYPLTFGGGTKVEIKR",0.079
7,"hu71H3L1 (antibody, human IgG1, kappa) heavy: not shown light: DIVMTQTPLSLPVTPGEPASISCRSSQSLVHSYGNTYLHWYLQKPGQSPQLLIYKVSNRFSGVPDRFSGSGSGTDFTLKISRVEAEDVGVYYCSQTTHVPWTFGGGTKVEIKRTVAAPSVFIFPPSDEQLKSGTASVVCLLNNFYPREAKVQWKVDNALQSGNSQESVTEQDSKDSTYSLSSTLTLSKADYEKHKVYACEVTHQGLSSPVTKSFNRGEC",0.086
8,"hu71H4L2 (antibody, human IgG1, kappa) heavy: not shown light: DVVVTQTPLSLPVTPGEPASISCRSSQSLVHSYGNTYLHWYLQKPGQSPQLLIYKVSNRFSGVPDRFSGSGSGTDFTLKISRVEAEDVGVYYCSQTTHVPWTFGGGTKVEIKRTVAAPSVFIFPPSDEQLKSGTASVVCLLNNFYPREAKVQWKVDNALQSGNSQESVTEQDSKDSTYSLSSTLTLSKADYEKHKVYACEVTHQGLSSPVTKSFNRGEC",0.0867
9,"hu71H2L1 (antibody, human IgG1, kappa) heavy: not shown light: DIVMTQTPLSLPVTPGEPASISCRSSQSLVHSYGNTYLHWYLQKPGQSPQLLIYKVSNRFSGVPDRFSGSGSGTDFTLKISRVEAEDVGVYYCSQTTHVPWTFGGGTKVEIKRTVAAPSVFIFPPSDEQLKSGTASVVCLLNNFYPREAKVQWKVDNALQSGNSQESVTEQDSKDSTYSLSSTLTLSKADYEKHKVYACEVTHQGLSSPVTKSFNRGEC",0.0631
10,"hu27H1L2 (antibody, human IgG1, kappa) heavy: not shown light: EIVLTQSPDFQSVTPKEKVTITCSASSSVSYMYWYQQKPDQSPKPWIYRTSNLASGVPSRFSGSGSGTDYTLTINSLEAEDAATYYCQQYHSYPLTFGQGTKLEIKRTVAAPSVFIFPPSDEQLKSGTASVVCLLNNFYPREAKVQWKVDNALQSGNSQESVTEQDSKDSTYSLSSTLTLSKADYEKHKVYACEVTHQGLSSPVTKSFNRGEC",1.65
